The target in this experiment is Affinity-purified MHC class I molecules K^b with human β2m (mouse (H-2^b); human).

B1: K^b/S208-215-binding peptide 1 of HBsAgadw2 (IVSPFIPL) (peptide)
peptide: IVSPFIPL
In the case of B1, 773 nM corresponded to half-maximal inhibition (IC50). That is a sub-micromolar value.

Values taken from patent US20060233832A1 (Rhein Biotech Gesellschaft Fur Neue Biotechnologische …, published 2006).
